Measured values as given in the supplement of paper PMC10567573.

B1: ANKRD9 (parent)
chain: VGAAGSARQELLGDRPRWQRLLGE

Variants of: B1
Assay: protein stability index of a GFP-peptide fusion (GPS, HEK-293T) (PSI 1-6); higher = more stable
Conditions: c terminus: a fixed tail appended
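Further: lentivirally expressed fusions sorted by FACS into six bins by GFP to DsRed ratio, PSI derived from sequencing read proportions per bin multiplied by bin number.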

Row | Variant | protein stability index
1 | VGAAGSARLELLGDRPRWQRLLGE | 2.81
2 | VGAAGSARKELLGDRPRWQRLLGE | 3.05
3 | VGAAGSARGELLGDRPRWQRLLGE | 3.41
4 | VGAAGSARPELLGDRPRWQRLLGE | 3.29
5 | VGAAGSNRQELLGDRPRWQRLLGE | 3.74
6 | VGAAGSMRQELLGDRPRWQRLLGE | 3.87
7 | VGAAGSKRQELLGDRPRWQRLLGE | 2.94
8 | VGAAGSERQELLGDRPRWQRLLGE | 5
9 | VGAAGSRRQELLGDRPRWQRLLGE | 3.08
10 | VGAAGSHRQELLGDRPRWQRLLGE | 3.36
11 | VGAAGSWRQELLGDRPRWQRLLGE | 2.53
12 | VGAAGSLRQELLGDRPRWQRLLGE | 4.03
13 | VGAAGSTRQELLGDRPRWQRLLGE | 3.62
14 | VGAAGSDRQELLGDRPRWQRLLGE | 3.65
15 | VGAAGSIRQELLGDRPRWQRLLGE | 3.49
16 | VGAAGSQRQELLGDRPRWQRLLGE | 4.21
17 | VGAAGSPRQELLGDRPRWQRLLGE | 2.98
18 | VGAAGSCRQELLGDRPRWQRLLGE | 3.44
19 | VGAAGSFRQELLGDRPRWQRLLGE | 2.49
20 | VGAAGSYRQELLGDRPRWQRLLGE | 2.43
21 | VGAAGSSRQELLGDRPRWQRLLGE | 2.93
22 | VGAAGSVRQELLGDRPRWQRLLGE | 2.73
23 | VGAAGSARQALLGDRPRWQRLLGE | 2.85
24 | VGAAGSARQWLLGDRPRWQRLLGE | 1.76

Row | Variant | protein stability index
25 | VGAAGSARQYLLGDRPRWQRLLGE | 3.03
26 | VGAAGSARQGLLGDRPRWQRLLGE | 2.55
27 | VGAAGSARQPLLGDRPRWQRLLGE | 1.62
28 | VGAAGSARQLLLGDRPRWQRLLGE | 2.13
29 | VGAAGSARQQLLGDRPRWQRLLGE | 3
30 | VGAAGSARQRLLGDRPRWQRLLGE | 2.71
31 | VGAAGSARQMLLGDRPRWQRLLGE | 2.63
32 | VGAAGSARQDLLGDRPRWQRLLGE | 3.37
33 | VGAAGSARQHLLGDRPRWQRLLGE | 2.6
34 | VGAAGSARQILLGDRPRWQRLLGE | 2.4
35 | VGAAGSARQSLLGDRPRWQRLLGE | 3.54
36 | VGAAGSARQVLLGDRPRWQRLLGE | 3.25
37 | VGAAGSARQCLLGDRPRWQRLLGE | 2.75
38 | VGAAGSARQFLLGDRPRWQRLLGE | 3.33
39 | VGAAGSARQTLLGDRPRWQRLLGE | 2.39
40 | VGAAGSARQNLLGDRPRWQRLLGE | 3.22
41 | VGAAGSAIQELLGDRPRWQRLLGE | 3.08
42 | VGAAGSADQELLGDRPRWQRLLGE | 3.53
43 | VGAAGSAYQELLGDRPRWQRLLGE | 2.96
44 | VGAAGSAGQELLGDRPRWQRLLGE | 3.68
45 | VGAAGSACQELLGDRPRWQRLLGE | 3.02
46 | VGAAGSAWQELLGDRPRWQRLLGE | 2.35
47 | VGAAGSAEQELLGDRPRWQRLLGE | 4.01
48 | VGAAGSAKQELLGDRPRWQRLLGE | 3.15

Row | Variant | protein stability index
49 | VGAAGSAHQELLGDRPRWQRLLGE | 3.39
50 | VGAAGSANQELLGDRPRWQRLLGE | 4.03
51 | VGAAGSALQELLGDRPRWQRLLGE | 2.92
52 | VGAAGSAQQELLGDRPRWQRLLGE | 3.37
53 | VGAAGSATQELLGDRPRWQRLLGE | 2.76
54 | VGAAGSAFQELLGDRPRWQRLLGE | 2.5
55 | VGAAGSAVQELLGDRPRWQRLLGE | 3.32
56 | VGAAGSAPQELLGDRPRWQRLLGE | 2.94
57 | VGAAGSAAQELLGDRPRWQRLLGE | 2.96
58 | VGAAGSASQELLGDRPRWQRLLGE | 3.47
59 | VGAAKSARQELLGDRPRWQRLLGE | 2.69
60 | VGAAYSARQELLGDRPRWQRLLGE | 1.93
61 | VGAARSARQELLGDRPRWQRLLGE | 2.27
62 | VGAAHSARQELLGDRPRWQRLLGE | 2.68
63 | VGAATSARQELLGDRPRWQRLLGE | 2.3
64 | VGAAMSARQELLGDRPRWQRLLGE | 2.37
65 | VGAAVSARQELLGDRPRWQRLLGE | 2.9
66 | VGAADSARQELLGDRPRWQRLLGE | 2.48
67 | VGAAQSARQELLGDRPRWQRLLGE | 3.09
68 | VGAALSARQELLGDRPRWQRLLGE | 2.68
69 | VGAASSARQELLGDRPRWQRLLGE | 4
70 | VGAAPSARQELLGDRPRWQRLLGE | 3.53
71 | VGAAWSARQELLGDRPRWQRLLGE | 2.9
72 | VGAAFSARQELLGDRPRWQRLLGE | 2.86

Row | Variant | protein stability index
73 | VGAACSARQELLGDRPRWQRLLGE | 1.49
74 | VGAAASARQELLGDRPRWQRLLGE | 3
75 | VGAANSARQELLGDRPRWQRLLGE | 2.9
76 | VGAAISARQELLGDRPRWQRLLGE | 2.69
77 | VGAAESARQELLGDRPRWQRLLGE | 4.56
78 | VGTAGSARQELLGDRPRWQRLLGE | 3.14
79 | VGHAGSARQELLGDRPRWQRLLGE | 2.91
80 | VGKAGSARQELLGDRPRWQRLLGE | 2.86
81 | VGDAGSARQELLGDRPRWQRLLGE | 3.81
82 | VGQAGSARQELLGDRPRWQRLLGE | 3
83 | VGNAGSARQELLGDRPRWQRLLGE | 3.19
84 | VGWAGSARQELLGDRPRWQRLLGE | 2.53
85 | VGSAGSARQELLGDRPRWQRLLGE | 2.78
86 | VGGAGSARQELLGDRPRWQRLLGE | 3.49
87 | VGVAGSARQELLGDRPRWQRLLGE | 3.89
88 | VGCAGSARQELLGDRPRWQRLLGE | 1.52
89 | VGEAGSARQELLGDRPRWQRLLGE | 3.55
90 | VGIAGSARQELLGDRPRWQRLLGE | 3.48
91 | VGFAGSARQELLGDRPRWQRLLGE | 2.52
92 | VGPAGSARQELLGDRPRWQRLLGE | 3.58
93 | VGMAGSARQELLGDRPRWQRLLGE | 2.53
94 | VGRAGSARQELLGDRPRWQRLLGE | 3.06
